# Experimental data from patent US20200139098A1, “DELIVERY SYSTEM AND PROCESS” (POLYPHARMA PTY LTD, priority 2006, published 2020).
# Tested on: rabbit eyes
# Test: Distribution of Avastin in sectioned rabbit eyes by fluorescence and DIC microscopy, after intravitreal injection or sonophoresis from a hydrogel
# Format: in vivo
# Text: As described above, the delivery system or device can be used to deliver molecules and/or nanoparticles to the eye of a patient. Once delivered to the surface of the eye, the molecules and/or nanoparticles can penetrate the outer surface of the eye and diffuse to the posterior parts of the eye. For example, FIGS. 14 to 19 are optical microscope images of sectioned rabbit eyes imaged by Differential Interference Contrast (DIC) phase contrast imaging and fluorescence imaging, illustrating the distribution of the monoclonal antibody Avastin to various parts of the eye. Each of these six Figures includes two panels, comprising a left-hand panel showing a fluorescence image, and a right-hand panel showing a white light DIC phase contrast image. FIGS. 14 to 16 illustrate the distribution of Avastin delivered by intravitreal injection, whereas FIGS. 17 to 19 show the distribution of Avastin delivered from a hydrogel by sonophoresis of five minute duration. The red colour in the fluorescence images indicates a secondary antibody bound to Avastin. Consequently, the red colour indicates the location of Avastin in the tissues of the eye.
# The vitreous humor is not visible in the “white-light” DIC images because the sections are mounted on the slides using a 90% glycerol solution in order to stabilise the cover slip and the section during the confocal microscopy. The glycerol has a similar refractive index to the vitreous humor.
substance,measurement,setting,value
Avastin: the monoclonal antibody Avastin,presence of Avastin in vitreous humor (staining),"rabbit eye (LE), Sonoactuator: hydrogel, sonophoresis of five minute duration",not visibly stained
same,presence of Avastin in vitreous (red staining),"rabbit eye (RE), intravitreal injection",abundant presence
same,staining of ciliary body for Avastin,"rabbit eye, delivery from the gel with ultrasound",does not stain well
same,staining of ciliary body and iris for Avastin,"rabbit eye, intravitreal injection",heavily stained
same,delivery of Avastin to choroid and retina,"rabbit eye, non-invasive delivery from hydrogel under ultrasonic stimulation (FIGS. 17 to 19)",non-invasively delivered to the choroid and retina
